Data on one substance can be found in PMC11479587.

The target of the assay is Ssa1 (yeast (S. cerevisiae)) (UniProt P10591).
Chain of Ssa1 (yeast (S. cerevisiae)) (P10591 whole entry): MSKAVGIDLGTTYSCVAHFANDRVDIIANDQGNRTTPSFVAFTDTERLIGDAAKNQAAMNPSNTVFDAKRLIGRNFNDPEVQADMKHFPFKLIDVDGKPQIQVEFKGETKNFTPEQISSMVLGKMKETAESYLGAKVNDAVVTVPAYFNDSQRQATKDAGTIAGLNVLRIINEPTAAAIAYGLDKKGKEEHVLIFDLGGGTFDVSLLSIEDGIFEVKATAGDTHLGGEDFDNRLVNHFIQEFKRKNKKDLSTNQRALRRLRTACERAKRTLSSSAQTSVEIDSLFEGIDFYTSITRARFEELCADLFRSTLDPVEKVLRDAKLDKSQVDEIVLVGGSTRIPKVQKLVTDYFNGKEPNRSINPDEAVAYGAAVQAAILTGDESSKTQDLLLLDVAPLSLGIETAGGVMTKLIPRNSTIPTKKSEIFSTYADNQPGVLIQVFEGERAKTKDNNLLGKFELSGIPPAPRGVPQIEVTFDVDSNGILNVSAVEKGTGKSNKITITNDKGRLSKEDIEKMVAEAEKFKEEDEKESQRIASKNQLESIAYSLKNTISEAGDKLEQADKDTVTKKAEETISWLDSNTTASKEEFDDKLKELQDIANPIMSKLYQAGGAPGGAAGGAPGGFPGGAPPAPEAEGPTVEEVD

As for “Sse1-2 variant (N572Y E575A) (from UniProt P32589 1-693) (natural protein)”, the renaturation of heat-aggregated GFP by Ssa1-Sis1 (1 µM each); concentration of Sse1-2 against Sse1 WT needed for the same activity; no inhibition up to 2 µM Sse1-2 came out at 20 times.
